According to article PMC13100509, “A milestone in C4 carbon concentration mechanism evolution: structural remodeling of NADP-malic enzyme in Poaceae” (Molecular Biology and Evolution, 2026):
Values joined by “and” are separate entries in the source; they are usually repeats but may differ in a detail not shown here. Equal values may be shown once. Blank lines part the entries; values can stand above or below the molecule they belong to.

Columns and labels:
[1] = target: Cyt2-NADP-ME from maize extracts (maize (endogenous in maize etiolated leaves and roots)); test: native gel or EMSA; native PAGE (7%) of maize extracts of etiolated leaves and roots; in-gel NADP-ME activity assay, active bands excised and identified by mass spectrometry; mobility compared with the recombinant proteins
[2] = target: maize nonC4-NADP-malic enzyme, recombinant wild type (maize (Zea mays)); test: cryo-EM structure; single-particle cryo-EM of His-tagged proteins, 0.2 to 0.5 mg/ml, 20 mM Tris-HCl, 5 mM MgCl2, 40 mM pyruvate, 2 mM NADP, pH 8.0; oligomeric state from the numbers of particles
[3] = target: maize nonC4-NADP-malic enzyme, recombinant wild type (maize (Zea mays)); test: native gel or EMSA; native PAGE (6% or 7%) of purified recombinant proteins, 100 V, 4 °C; Coomassie staining or in-gel NADP-ME activity assay; oligomeric state from mobility against native markers
[4] = target: maize nonC4-NADP-malic enzyme, recombinant wild type (maize (Zea mays)); test: as above; remark: listed apart in the source
[5] = target: maize nonC4-NADP-malic enzyme, recombinant wild type (maize (Zea mays)); test: AUC; sedimentation velocity of recombinant proteins; 20 mM Tris-HCl pH 7.0 or 8.0, 5 mM MgCl2; 1.1 mg/ml (16 uM); 20 °C, 35,000 rpm; c(s) model in SEDFIT; self-association, dimers and tetramers
[6] = target: Cyt1-NADP-ME from maize extracts (maize (endogenous in maize etiolated leaves and roots)); test: native gel or EMSA; native PAGE (7%) of maize extracts of etiolated leaves and roots; in-gel NADP-ME activity assay, active bands excised and identified by mass spectrometry; mobility compared with the recombinant proteins
[7] = target: the molecule itself; test: AUC; sedimentation velocity of recombinant proteins; 20 mM Tris-HCl pH 7.0 or 8.0, 5 mM MgCl2; 1.1 mg/ml (16 uM); 20 °C, 35,000 rpm; c(s) model in SEDFIT; self-association, dimers and tetramers
[8] = target: the molecule itself; test: native gel or EMSA; native PAGE (7%) of maize extracts of etiolated leaves and roots; in-gel NADP-ME activity assay, active bands excised and identified by mass spectrometry; mobility compared with the recombinant proteins

Molecule: maize nonC4-NADP-malic enzyme, recombinant wild type
- percent tetramers [2]: 10%
- stoichiometry N [2]: 2
- stoichiometry N [3]: 4
- stoichiometry N [4]: 2
- stoichiometry N [5]: 2 and 4

B1: maize C4-NADP-malic enzyme, recombinant wild type (enzyme, maize (Zea mays), UniProt P16243 63-636, looked up)
chain: MVSNAETETEKEQEEAAAASEELPVMPWATSVASGYTLLRDPHHNKGLAFTEEERDGHYLRGLLPPAVLSQELQIKKFMNTLRQYQTPLQRYIAMMNLQETDERLFYKLLIDNVVELLPFVYTPTVGEACQKYGSIFGRPQGLYVSLKDKGKVLEVLRNWPHRNIQVICVTDGERILGLGDLGCQGMGIPVGKLALYTALGGVDPSVCLPITIDVGTNNEFLLNDEFYIGLRQKRATGEEYDELIEEFMSAVKQFYGEKVLIQFEDFANHNAFDLLEKYSKSHLVFNDDIQGTASVVLAGLLAALKMVGGTLAEQTYLFLGAGEAGTGIAELIALEISKQTNAPIEECRKKVWLVDSKGLIVDSRKGSLQPFKKPWAHEHEPLKTLYDAVQSIKPTVLIGTSGVGRTFTKEIIEAMSSFNERPIIFSLSNPTSHSECTAEQAYTWSQGRSIFASGSPFAPVEYEGKTFVPGQSNNAYIFPGLGLGLVISGAVRVHEDMLLAASKALADQATQDNFEKGSIFPPFTSIRKISAHIAAAVAGKAYELGLATRLPPPSDLVKYAENCMYTPVYRNYR
notes: C4-NADP-malic enzyme (ZmC4-NADP-ME), plastidic C4 isoform of maize; construct of Alvarez et al. 2019; Vector pET16b::ZmC4-NADP-ME (Alvarez et al. 2019); also called C4-NADP-ME; ZmC4-NADP-ME; source: E. coli Rosetta2 (DE3) or ArcticExpress (DE3), purified (Ni-NTA)
- stoichiometry N [7]: 4

B2: C4-NADP-ME from maize extracts (enzyme, UniProt P16243 63-636, looked up)
chain: MVSNAETETEKEQEEAAAASEELPVMPWATSVASGYTLLRDPHHNKGLAFTEEERDGHYLRGLLPPAVLSQELQIKKFMNTLRQYQTPLQRYIAMMNLQETDERLFYKLLIDNVVELLPFVYTPTVGEACQKYGSIFGRPQGLYVSLKDKGKVLEVLRNWPHRNIQVICVTDGERILGLGDLGCQGMGIPVGKLALYTALGGVDPSVCLPITIDVGTNNEFLLNDEFYIGLRQKRATGEEYDELIEEFMSAVKQFYGEKVLIQFEDFANHNAFDLLEKYSKSHLVFNDDIQGTASVVLAGLLAALKMVGGTLAEQTYLFLGAGEAGTGIAELIALEISKQTNAPIEECRKKVWLVDSKGLIVDSRKGSLQPFKKPWAHEHEPLKTLYDAVQSIKPTVLIGTSGVGRTFTKEIIEAMSSFNERPIIFSLSNPTSHSECTAEQAYTWSQGRSIFASGSPFAPVEYEGKTFVPGQSNNAYIFPGLGLGLVISGAVRVHEDMLLAASKALADQATQDNFEKGSIFPPFTSIRKISAHIAAAVAGKAYELGLATRLPPPSDLVKYAENCMYTPVYRNYR
notes: C4-NADP-malic enzyme, plastidic C4 isoform of maize, identified by mass spectrometry in an active band of a native gel; source: endogenous, extracts of maize etiolated leaves and roots
- stoichiometry N [8]: 4

More lines, now with the values ahead:

- stoichiometry N [1]: 4
Molecule: Cyt2-NADP-ME from maize extracts (enzyme)

- stoichiometry N [6]: 4
Molecule: Cyt1-NADP-ME from maize extracts (enzyme)
